Key:
[1] = target: human PCSK9-mFc-biotin (human) (UniProt Q8NBP7); experiment: competitive ELISA, blocking of PCSK9 binding to LDL-R
[2] = target: human PCSK9 (Proprotein Convertase Subtilisin/Kexin type 9) (human) (UniProt Q8NBP7); experiment: cell-based or functional assay
[3] = target: human PCSK9 (Proprotein Convertase Subtilisin/Kexin type 9) (human) (UniProt Q8NBP7); experiment: binding ELISA on human PCSK9

IC50 [1]: 2.21 nM | IC50, LDL-uptake assay in HepG2 [2]: 77.6 nM | EC50 [3]: 0.044 nM
Substance: Repatha (antibody)
